Substitutions are numbered along the chain they refer to.
B1: canine IgG-D Fc: wild-type canine IgG-D Fc polypeptide (protein)
chain: PVPESLGGPSVFIFPPKPKDILRITRTPEITCVVLDLGREDPEVQISWFVDGKEVHTAKTQPREQQFNSTYRVVSVLPIEHQDWLTGKEFKCRVNHIGLPSPIERTISKARGQAHQPSVYVLPPSPKELSSSDTVTLTCLIKDFFPPEIDVEWQSNGQPEPESKYHTTAPQLDEDGSYFLYSKLSVDKSRWQQGDTFTCAVMHEALQNHYTDLSLSHSPGK
modifications: Wild-type canine IgG-D Fc , Protein A -, C1q -, CD16
notes: wild-type canine IgG-D Fc polypeptide
B2: canine IgG-B Fc: wild-type canine IgG-B Fc polypeptide (protein)
chain: PAPEMLGGPSVFIFPPKPKDTLLIARTPEVTCVVVDLDPEDPEVQISWFVDGKQMQTAKTQPREEQFNGTYRVVSVLPIGHQDWLKGKQFTCKVNNKALPSPIERTISKARGQAHQPSVYVLPPSREELSKNTVSLTCLIKDFFPPDIDVEWQSNGQQEPESKYRTTPPQLDEDGSYFLYSKLSVDKSRWQRGDTFICAVMHEALHNHYTQESLSHSPGK
modifications: Wild-type canine IgG-B Fc , Protein A +, C1q +, CD16 +
notes: wild-type canine IgG-B Fc polypeptide
B3: fusion protein comprising variant canine IgG-B Fc K(93)R: fusion protein comprising variant canine IgG-B Fc K(93)R (SEQ ID NO: 78); fusion partner not stated (protein)
chain: B2 chain with K93R
modifications: left off: a dimerising Fc or GST
B4: GLP1-G8_I_WTfeIgG2: Formula I contiguous polypeptide: GLP1-G8 (7-35), flexible linker, wildtype feline IgG2 Fc (protein)
chain: HGEGTFTSDVSSYLEGQAAKEFIAWLVKGGGGSGGGGSGGGGSGGGGSPKTASTIESKTGEGPKCPVPEIPGAPSVFIFPPKPKDTLSISRTPEVTCLVVDLGPDDSNVQITWFVDNTEMHTAKTRPREEQFNSTYRVVSVLPILHQDWLKGKEFKCKVNSKSLPSAMERTISKAKGQPHEPQVYVLPPTQEELSENKVSVTCLIKGFHPPDIAVEWEITGQPEPENNYQTTPPQLDSDGTYFLYSRLSVDRSHWQRGNTYTCSVSHEALHSHHTQKSLTQSPGK
modifications: Synthetic GLP1-G8_I_WTfeIgG2
notes: Formula I contiguous polypeptide: GLP1-G8 (7-35), flexible linker, wildtype feline IgG2 Fc
B5: canine IgG-A Fc: wild-type canine IgG-A Fc polypeptide (protein)
chain: PVPEPLGGPSVLIFPPKPKDILRITRTPEVTCVVLDLGREDPEVQISWFVDGKEVHTAKTQSREQQFNGTYRVVSVLPIEHQDWLTGKEFKCRVNHIDLPSPIERTISKARGRAHKPSVYVLPPSPKELSSSDTVSITCLIKDFYPPDIDVEWQSNGQQEPERKHRMTPPQLDEDGSYFLYSKLSVDKSRWQQGDPFTCAVMHETLQNHYTDLSLSHSPGK
modifications: Wild-type canine IgG-A Fc , Protein A -, C1q -, CD16
notes: wild-type canine IgG-A Fc polypeptide
B6: GLP1-G8/GLP1-2G_III_VARfeIgG2: Formula III GLP1 contiguous polypeptide comprising variant feline IgG2 Fc of SEQ ID NO: 17 (Gly to Cys at position 14) (protein)
chain: HGEGTFTSDVSSYLEGQAAKEFIAWLVKGGGGSGGGGSGGGGSGGGGSPKTASTIESKTGECPKCPVPEIPGAPSVFIFPPKPKDTLSISRTPEVTCLVVDLGPDDSNVQITWFVDNTEMHTAKTRPREEQFNSTYRVVSVLPILHQDWLKGKEFKCKVNSKSLPSAMERTISKAKGQPHEPQVYVLPPTQEELSENKVSVTCLIKGFHPPDIAVEWEITGQPEPENNYQTTPPQLDSDGTYFLYSRLSVDRSHWQRGNTYTCSVSHEALHSHHTQKSLTQSPGKGGGGSGGGGHAEGTFTSDVSSYLEGQAAKEFIAWLVKGGG
modifications: Synthetic GLP1-G8/GLP1-2G_III_ VARfeIgG2
B7: GLP1-G8/GLP1-2G_III_WTfeIgG2: Formula III contiguous polypeptide: GLP1-G8 (7-35), GLP1 (7-35), two flexible linkers, 2G C-terminal extension, wildtype feline IgG2 Fc (protein)
chain: B6 chain with C62G
modifications: Synthetic GLP1-G8/GLP-2G_III_ WTfeIgG2
notes: Formula III contiguous polypeptide: GLP1-G8 (7-35), GLP1 (7-35), two flexible linkers, 2G C-terminal extension, wildtype feline IgG2 Fc
B8: canine IgG-C Fc: wild-type canine IgG-C Fc polypeptide (protein)
chain: PGCGLLGGPSVFIFPPKPKDILVTARTPTVTCVVVDLDPENPEVQISWFVDSKQVQTANTQPREEQSNGTYRVVSVLPIGHQDWLSGKQFKCKVNNKALPSPIEEIISKTPGQAHQPNVYVLPPSRDEMSKNTVTLTCLVKDFFPPEIDVEWQSNGQQEPESKYRMTPPQLDEDGSYFLYSKLSVDKSRWQRGDTFICAVMHEALHNHYTQISLSHSPGK
modifications: Wild-type canine IgG-C Fc , Protein A - , C1q +, CD16 +
notes: wild-type canine IgG-C Fc polypeptide

How the values were obtained:
[1] = target: Protein A (Staphylococcus aureus, UniProt P38507); settings: for Protein A Binding: Wild-type Canine IgG Fc
Description: In some embodiments, the KD of an IgG Fc polypeptide, such as a variant IgG Fc polypeptide, to Protein A or to C1q or to CD16 is measured by using biolayer interferometry assays using a biosensor, such as an Octet® System (Pall ForteBio LLC, Fremont, CA) according to the supplier's instructions. In brief, biotinylated Protein A or C1q or CD16 is bound to the sensor tip and the association of IgG Fc polypeptide is monitored for a specified time or until steady state is reached. Dissociation may be monitored for a specified time or until steady state is reached. A buffer only blank curve is subtracted to correct for any drift. The data are fit to a 2:1 binding model using ForteBio data analysis software to determine association rate constant (kon), dissociation rate constant (koff), and the Kd. The equilibrium dissociation constant (KD) is calculated as the ratio of koff/kon. The term “kon” refers to the rate constant for association of a molecule X to its partner Y and the term “koff” refers to the rate constant for dissociation of a molecule X or partner Y from the molecule X/partner Y complex.
Binding analysis may be performed using an Octet biosensor. Briefly, the target molecule (e.g., Protein A, C1q, CD16, etc.) may be biotinylated and free unreacted biotin removed (e.g., by dialysis). The biotinylated target molecule is captured on streptavidin sensor tips. Association of the target molecule with various concentrations (e.g., 10 μg/mL) of IgG Fc polypeptide is monitored for a specified time or until steady state is reached. Dissociation is monitored for a specified time or until steady state is reached. A buffer only blank curve may be subtracted to correct for any drift. The data are fit to a 1:1 binding model using ForteBio™ data analysis software to determine the kon, koff, and the Kd.

[2] = target: CD16 (Homo sapiens, UniProt P08637); test: CD16 binding of IgG Fc polypeptides (Octet biolayer interferometry described); settings: for CD16 Binding: Wild-type Canine IgG Fc
Sequence of CD16 (P08637 17-254): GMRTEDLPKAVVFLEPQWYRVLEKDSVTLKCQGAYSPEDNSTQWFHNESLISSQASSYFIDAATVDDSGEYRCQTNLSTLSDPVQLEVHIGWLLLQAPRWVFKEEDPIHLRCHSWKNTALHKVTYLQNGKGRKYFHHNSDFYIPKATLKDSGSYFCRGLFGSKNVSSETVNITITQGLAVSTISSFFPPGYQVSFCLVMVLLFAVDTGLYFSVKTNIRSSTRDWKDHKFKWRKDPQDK
From the text: (§1) Binding analysis may be performed using an Octet biosensor.

[3] = target: T1, C1q (Homo sapiens, UniProt P02745+P02746+P02747); test: C1q binding of IgG Fc polypeptides (Octet biolayer interferometry described); settings: for C1q Binding: Wild-type Canine IgG Fc; as to C1q binding: key: (−) denotes low or no measurable binding activity
T1 sequence (P02745 23-245): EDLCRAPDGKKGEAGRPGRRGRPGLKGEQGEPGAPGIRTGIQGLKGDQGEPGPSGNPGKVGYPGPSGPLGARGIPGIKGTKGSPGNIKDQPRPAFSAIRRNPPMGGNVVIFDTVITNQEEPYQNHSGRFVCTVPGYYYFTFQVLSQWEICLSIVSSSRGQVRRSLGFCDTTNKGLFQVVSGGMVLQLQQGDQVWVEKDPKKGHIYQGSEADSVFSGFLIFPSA
T1 sequence (P02746 28-253): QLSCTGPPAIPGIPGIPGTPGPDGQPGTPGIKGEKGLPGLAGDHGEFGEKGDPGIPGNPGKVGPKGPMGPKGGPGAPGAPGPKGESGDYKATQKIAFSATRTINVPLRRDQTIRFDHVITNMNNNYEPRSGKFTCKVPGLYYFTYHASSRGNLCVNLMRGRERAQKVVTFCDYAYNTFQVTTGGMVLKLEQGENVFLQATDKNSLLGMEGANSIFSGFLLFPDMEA
T1 sequence (P02747 29-245): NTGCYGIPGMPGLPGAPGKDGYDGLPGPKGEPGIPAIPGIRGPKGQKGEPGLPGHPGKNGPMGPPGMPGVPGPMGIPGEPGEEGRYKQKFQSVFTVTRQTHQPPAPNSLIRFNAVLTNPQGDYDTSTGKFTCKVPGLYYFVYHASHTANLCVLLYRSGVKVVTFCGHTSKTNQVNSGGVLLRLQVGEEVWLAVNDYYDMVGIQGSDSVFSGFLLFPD
From the text: as §1

[4] = target: T1, C1q; test: Binding between human C1q and canine IgG-B Fc fusion protein; settings: compared to a fusion protein comprising wild-type canine IgG-B Fc
From the text: as §1

[5] = Differential scanning fluorimetry, stability at various pH; format: physicochemical; settings: n = 3, 10 μg construct
From the text: Furthermore, differential scanning fluorimetry was used to assess the stability of the contiguous polypeptides at various pH, as reflected by mean melting point temperature (n=3) (Table 9, below). The increased stability of the variant feline IgG2 hinge is most evident at pH 6.

Molecule	Protein A binding affinity [1]	Protein A Binding [1]	binding affinity to C1q [3]	Mean Melting Point Temperature (Tm) ([5]; pH 6)	Mean Melting Point Temperature (Tm) ([5]; pH 7)	Mean Melting Point Temperature (Tm) ([5]; pH 8)	further results
B1	weak or no measurable Protein A binding affinity	−	weak or no measurable binding affinity to C1q				CD16 Binding [2]: −; C1q Binding [3]: −
B2	has Protein A binding affinity		bind to C1q				CD16 binding activity [2]: have CD16 binding activity
B3							binding to human C1q [4]: Reduced binding
B4				56.9 °C	59.9 °C	59 °C	Mean Melting Point Temperature (Tm) ([5]; pH 5): 48.5 °C
B5	weak or no measurable Protein A binding affinity	−	weak or no measurable binding affinity to C1q				CD16 Binding [2]: −; C1q Binding [3]: −
B6				56.9 °C	55 °C	52.5 °C	
B7				55.2 °C	55.7 °C	54.2 °C	
B8	weak or no measurable Protein A binding affinity	−	bind to C1q				CD16 binding activity [2]: have CD16 binding activity

Reference: patent US12297272B2, “IgG Fc variants for veterinary use” (Elanco US Inc., priority 2017, dated 2025)
